Source: patent CN113484526A (SHANGHAI MABGEN MEDICINE TECH CO LTD, dated 2021)

B1: hybri11 (antibody, V domains shown)
VH: QVQLQQPGAELVKPGASVKVSCKASGSTFTSYYMHWVKQRPGQGLEWIGRIHPSNSDSNYNQKFKGKATLTVDKSSSTAYMQLSSLTSEDSAVYYCAMKRDGYYEGFPHWGQGTLVTVSA
VL: DIQMTQSPASQSASLGESVTITCLASQTIGTWLAWYQQKPGKSPQLLIYAATSLADGVPSRFSGSRSGTKFSFKISSLQAEDFVSYYCQQLYSTPYTFGGGTKLEIK
notes: Mouse hybridoma antibody; tested as hybridoma supernatant/purified antibody; also called 阳性克隆hybri11

Assays:
[1] = target: Human FcRn Protein, His Tag (ACRO Biosystems, Cat.No.FCN-H52W7) (human) (UniProt P55899); test: competition ELISA against Biotin-IgG on FcRn-His, relative to the reference antibody (SEQ ID NO: 180/181)
[2] = target: T1, 人FcRn胞外区-β2M复合物(带His标签的重组蛋白) (human, UniProt P61769 21-119); test: hybridoma screening: binding ELISA, cell binding and cell blocking
T1 construct: also called FcRn抗原; 人FcRn-β2M复合物; not shown: His tag
T1 sequence (chain, as listed by the source limits assumed, chain 1 of 2): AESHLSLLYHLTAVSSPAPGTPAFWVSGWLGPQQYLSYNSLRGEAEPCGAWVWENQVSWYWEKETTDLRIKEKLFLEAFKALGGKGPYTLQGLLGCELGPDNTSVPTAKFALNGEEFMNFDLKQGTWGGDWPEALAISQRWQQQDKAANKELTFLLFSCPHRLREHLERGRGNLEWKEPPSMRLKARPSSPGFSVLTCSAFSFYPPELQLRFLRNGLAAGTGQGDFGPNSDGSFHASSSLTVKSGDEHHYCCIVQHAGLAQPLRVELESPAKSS
T1 sequence (P61769 21-119 limits assumed, chain 2 of 2): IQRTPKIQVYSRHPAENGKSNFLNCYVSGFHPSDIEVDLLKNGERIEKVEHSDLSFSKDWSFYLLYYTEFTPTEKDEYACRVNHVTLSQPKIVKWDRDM

Sequence of UniProt P55899 (P55899 24-297 limits assumed, chain 1 of 2): as the sequence (chain, as listed by the source limits assumed, chain 1 of 2) above
Sequence of UniProt P55899 (P61769 21-119 limits assumed, chain 2 of 2, further chain): as the sequence (P61769 21-119 limits assumed, chain 2 of 2) above

Molecule | 生物学活性(相对参考品) [1] [%] | binding result [2]
不针对FcRn靶点的无关抗体(IgG4亚型，迈晋生物自制) (antibody) | 0 | 
B1 |  | binds
